Test results from paper PMC6307106.

Assays:
[1] = biological target: PDGFRα extracellular domain (Homo sapiens, UniProt P16234 24-524); test: SPR
[2] = biological target: PDGFRβ (recombinant) (UniProt P09619 33-532); test: SPR
Chain of PDGFRβ (recombinant) (P09619 33-532): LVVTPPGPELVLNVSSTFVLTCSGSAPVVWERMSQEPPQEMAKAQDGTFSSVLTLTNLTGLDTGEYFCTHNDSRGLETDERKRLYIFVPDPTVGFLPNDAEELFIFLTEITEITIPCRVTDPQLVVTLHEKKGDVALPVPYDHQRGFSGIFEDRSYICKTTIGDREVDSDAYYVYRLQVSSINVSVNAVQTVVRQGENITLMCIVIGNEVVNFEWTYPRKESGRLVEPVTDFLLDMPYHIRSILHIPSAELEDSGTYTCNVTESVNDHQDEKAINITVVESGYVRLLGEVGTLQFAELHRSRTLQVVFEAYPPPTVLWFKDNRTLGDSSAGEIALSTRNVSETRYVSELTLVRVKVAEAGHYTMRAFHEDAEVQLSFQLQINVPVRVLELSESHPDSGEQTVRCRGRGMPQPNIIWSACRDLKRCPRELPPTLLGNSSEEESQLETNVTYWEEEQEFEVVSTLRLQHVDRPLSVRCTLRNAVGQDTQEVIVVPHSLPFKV

Chain of PDGFRα extracellular domain (P16234 24-524): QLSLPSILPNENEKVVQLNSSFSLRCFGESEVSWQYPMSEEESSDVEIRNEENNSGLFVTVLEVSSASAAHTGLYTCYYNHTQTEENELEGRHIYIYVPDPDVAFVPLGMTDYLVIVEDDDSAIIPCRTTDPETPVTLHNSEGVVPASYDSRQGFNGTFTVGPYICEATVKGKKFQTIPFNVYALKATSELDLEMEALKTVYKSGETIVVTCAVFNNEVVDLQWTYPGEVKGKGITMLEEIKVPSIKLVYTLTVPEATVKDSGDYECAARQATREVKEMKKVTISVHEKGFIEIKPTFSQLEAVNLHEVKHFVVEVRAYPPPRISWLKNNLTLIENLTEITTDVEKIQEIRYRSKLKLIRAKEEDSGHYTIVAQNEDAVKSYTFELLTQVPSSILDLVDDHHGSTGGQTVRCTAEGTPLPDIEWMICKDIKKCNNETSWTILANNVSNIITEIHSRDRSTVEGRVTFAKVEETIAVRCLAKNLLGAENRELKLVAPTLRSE

B1: PDR3 (structured_RNA)
RNA: GGGAGAGCGGAAGCGUGCUGGGCCUGCUCUUUAAUAAACCCACUUUCGAACAUCAGCGUAUGUCCAUAACCCAGAGGUGAUGGAUCCCCC
modifications: 2'-F pyrimidines (2'F-U, 2'F-C)
- Kd [1]: 0.25 nM
- binding result [2]: no binding
